Assay results: US6323001A, “Increasing the trehalose content of organisms by transforming them with combinations of the structural genes for trehalose synthase” (BTG International Ltd., priority 1994, dated 2001)

What was measured:
Format in all cases: biochemical, baker's yeast
[1] = target: T1, Tre6Pase activity of intact trehalose synthase (Saccharomyces cerevisiae, UniProt P31688); experiment: Tre6Pase assay of intact trehalose synthase
T1 construct: Intact trehalose synthase was purified from commercial baker's yeast; made in house; host or cells: commercial baker's yeast (native enzyme purified, not recombinant)
T1 sequence (P31688 1-896): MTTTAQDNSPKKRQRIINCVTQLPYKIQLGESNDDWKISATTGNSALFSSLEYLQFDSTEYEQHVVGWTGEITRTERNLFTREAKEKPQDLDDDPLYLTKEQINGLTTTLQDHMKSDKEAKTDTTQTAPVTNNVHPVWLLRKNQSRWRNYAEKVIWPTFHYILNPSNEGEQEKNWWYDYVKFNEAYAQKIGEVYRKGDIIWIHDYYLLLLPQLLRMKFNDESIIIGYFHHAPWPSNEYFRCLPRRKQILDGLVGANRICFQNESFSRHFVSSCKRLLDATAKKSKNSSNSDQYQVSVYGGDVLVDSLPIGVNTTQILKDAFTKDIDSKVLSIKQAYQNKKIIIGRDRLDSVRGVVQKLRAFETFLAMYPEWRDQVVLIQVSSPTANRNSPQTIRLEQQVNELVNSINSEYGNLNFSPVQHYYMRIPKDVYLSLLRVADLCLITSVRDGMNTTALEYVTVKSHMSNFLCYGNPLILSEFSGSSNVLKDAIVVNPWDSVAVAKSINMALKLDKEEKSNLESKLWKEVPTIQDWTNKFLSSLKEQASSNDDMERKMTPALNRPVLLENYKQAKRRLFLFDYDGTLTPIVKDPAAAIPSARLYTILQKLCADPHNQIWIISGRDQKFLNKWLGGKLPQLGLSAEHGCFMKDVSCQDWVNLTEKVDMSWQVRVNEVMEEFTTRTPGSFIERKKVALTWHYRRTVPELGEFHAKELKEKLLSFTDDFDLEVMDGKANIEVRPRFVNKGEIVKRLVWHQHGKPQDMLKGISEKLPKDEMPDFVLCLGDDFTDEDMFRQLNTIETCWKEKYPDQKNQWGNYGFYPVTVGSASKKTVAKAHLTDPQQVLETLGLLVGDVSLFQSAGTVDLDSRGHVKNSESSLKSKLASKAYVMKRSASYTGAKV
T1 sequence (Q00764 1-495 partner): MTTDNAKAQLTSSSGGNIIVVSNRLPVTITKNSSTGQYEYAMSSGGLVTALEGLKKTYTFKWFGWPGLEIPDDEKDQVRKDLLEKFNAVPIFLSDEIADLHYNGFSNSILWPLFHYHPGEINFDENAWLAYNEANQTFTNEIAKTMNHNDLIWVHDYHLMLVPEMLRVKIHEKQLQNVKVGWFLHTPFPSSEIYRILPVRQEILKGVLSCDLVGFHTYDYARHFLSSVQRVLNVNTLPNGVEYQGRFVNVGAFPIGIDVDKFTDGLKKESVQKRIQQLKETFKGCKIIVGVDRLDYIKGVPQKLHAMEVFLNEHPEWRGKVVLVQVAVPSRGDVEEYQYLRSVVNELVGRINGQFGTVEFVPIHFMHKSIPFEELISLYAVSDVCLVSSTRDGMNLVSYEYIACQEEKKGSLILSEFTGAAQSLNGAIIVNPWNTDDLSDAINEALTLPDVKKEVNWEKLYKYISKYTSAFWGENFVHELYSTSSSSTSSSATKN
T1 sequence (P38427 1-1098 partner): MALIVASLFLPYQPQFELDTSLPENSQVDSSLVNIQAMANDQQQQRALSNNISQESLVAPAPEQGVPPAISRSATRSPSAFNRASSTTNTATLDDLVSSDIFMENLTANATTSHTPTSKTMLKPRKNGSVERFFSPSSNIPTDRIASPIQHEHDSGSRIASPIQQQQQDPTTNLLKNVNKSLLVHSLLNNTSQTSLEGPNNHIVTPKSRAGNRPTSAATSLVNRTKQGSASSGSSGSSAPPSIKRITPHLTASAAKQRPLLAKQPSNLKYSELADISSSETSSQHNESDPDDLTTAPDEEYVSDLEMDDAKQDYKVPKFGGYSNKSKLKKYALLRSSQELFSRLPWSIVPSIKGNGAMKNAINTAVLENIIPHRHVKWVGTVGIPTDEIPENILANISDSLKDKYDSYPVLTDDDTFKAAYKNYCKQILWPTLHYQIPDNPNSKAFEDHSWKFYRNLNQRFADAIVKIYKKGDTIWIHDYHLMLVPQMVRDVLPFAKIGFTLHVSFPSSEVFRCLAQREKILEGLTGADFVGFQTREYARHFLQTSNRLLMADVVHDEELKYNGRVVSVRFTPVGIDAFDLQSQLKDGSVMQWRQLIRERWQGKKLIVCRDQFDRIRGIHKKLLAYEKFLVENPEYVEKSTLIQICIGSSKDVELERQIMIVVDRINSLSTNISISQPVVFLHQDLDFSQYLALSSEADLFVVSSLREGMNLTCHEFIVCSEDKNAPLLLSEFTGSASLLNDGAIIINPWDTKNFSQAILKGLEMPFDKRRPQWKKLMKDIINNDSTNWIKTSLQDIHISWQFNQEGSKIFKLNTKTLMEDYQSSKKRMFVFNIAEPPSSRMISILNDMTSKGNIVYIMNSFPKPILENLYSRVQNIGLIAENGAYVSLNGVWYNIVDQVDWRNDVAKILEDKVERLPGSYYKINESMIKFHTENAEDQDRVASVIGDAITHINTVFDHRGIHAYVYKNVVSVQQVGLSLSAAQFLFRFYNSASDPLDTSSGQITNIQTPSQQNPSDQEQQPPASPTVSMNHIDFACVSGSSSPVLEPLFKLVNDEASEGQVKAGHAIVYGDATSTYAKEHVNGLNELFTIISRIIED
Experimental: (§1) With microbial materials, Tre6Pase and Tre6P synthase standard assays and other kinetic measurements were made as described by Londesborough & Vuorio [(1991) loc. cit.] except that the standard Tre6P synthase assay mixture contained 5 mM F6P unless stated otherwise.
(§2) In one experiment intact trehalose synthase (0.28 Tre6P synthase units, ≈9.4 μg) was incubated with or without 0.5 μg of trypsin at 30° C. in 250 μl of 13 mM HEPES pH 7.0 containing 1 mM MgCl2, 0.5 mM EDTA, 0.5 mM dithiothreitol, 0.2 M NaCl and 0.5 mM benzamidine. Its Tre6P synthase activity was determined at intervals using standard assay mixtures (containing 5 mM F6P) containing no or 4 mM K phosphate pH 6.8, and samples were prepared for SDS-PAGE analysis immediately before and 48 min after addition of the trypsin.
Intact trehalose synthase was prepared as in Example 1. Kinetic assays were done at 30° C. as described in General Methods and Materials.

[2] = target: T2, Tre6Pase activity of the 99 kDa polypeptide (Saccharomyces cerevisiae, UniProt P31688); experiment: Tre6Pase activity of isolated 99 kDa polypeptide
T2 construct: the 99 kDa polypeptide isolated from intact trehalose synthase is a specific trehalose-6-phosphatase; made in house; host or cells: commercial baker's yeast (native; isolated from intact trehalose synthase on phosphocellulose)
Experimental: Intact trehalose synthase has also been fractionated on phosphocellulose in the absence of Triton, and with elution by a simple linear gradient from 0 to 0.6 M NaCl. […] This activity differed from the Tre6Pase activity of intact trehalose synthase in that the ratio of activities at 25 mM phosphate and 50 mM Hepes was between 1.5 and 3 in different experiments (cf, this ratio is 5 to 6 for intact trehalose synthase). Furthermore, during storage of the isolated 99 kDa polypeptide at 0° C., the Tre6Pase activity at 25 mM phosphate decreased and that at 50 mM Hepes increased, until the ratio was about 0.7 after 7 weeks.

[3] = target: T3, Tre6P synthase activity of intact trehalose synthase (Saccharomyces cerevisiae, UniProt Q00764); experiment: Tre6P synthase assay of intact trehalose synthase; conditions: 0.5 μg trypsin, 30° C., first 10 min
T3 construct: Intact trehalose synthase was purified from commercial baker's yeast; made in house; host or cells: commercial baker's yeast (native enzyme purified, not recombinant)
Experimental: as §1
as §2, with “Removal of the N-terminal 325 or so amino acids from the 123 kDa long chain of intact trehalose synthase by treatment with trypsin in vitro produces an enzyme with catalytic properties like those of the truncated enzyme purified by Londesborough & Vuorio [(1991) loc. cit.]. In” for “In”
Truncated trehalose synthase was prepared as described by Londesborough & Vuorio [(1991) loc. cit.] and contained the 57 kDa short chain and 86 and 93 kDa fragments of the long chain. Intact trehalose synthase was prepared as in Example 1. Kinetic assays were done at 30° C. as described in General Methods and Materials.

[4] = target: T3, Tre6P synthase activity of intact trehalose synthase; experiment: Tre6P synthase assay of intact trehalose synthase; conditions: 11 μg trypsin, 25° C., after first 30 min (26% before)

| Molecule | rate of hydrolysis relative to 0.5 mM trehalose-6-phosphate ([1]; 1 mM G6P, phosphate or Hepes buffer) | hydrolysis by isolated 99 kDa polypeptide [2] | loss of Tre6Pase activity ([1]; limited treatment with trypsin, 30° C.) | increase in Tre6P synthase activity measured at 4 mM phosphate [3] [fold] | Tre6P synthase activity in absence of F6P and presence of 10 mM phosphate, % of standard activity [4] [%] |
| --- | --- | --- | --- | --- | --- |
| O=P(O)(O)OC[C@H]1OC(O)[C@H](O)[C@@H](O)[C@@H]1O (some centres unmarked) [Transformant G6P, Glucose 6-phosphate] | less than 1% | not hydrolyzed | – | – | – |
| trypsin | – | – | about 50% | 4 | 73 |
